Consider one molecule from US20180327500A1 (SYMPHOGEN A S, published 2018).

The assay has as its target T1, Mouse blade 3.
T1 construct: human/mouse chimera on transfected HEK293 cells; also called Mouse blade 3-IPT4
T1 MET ECD-SV5-GPI fusion: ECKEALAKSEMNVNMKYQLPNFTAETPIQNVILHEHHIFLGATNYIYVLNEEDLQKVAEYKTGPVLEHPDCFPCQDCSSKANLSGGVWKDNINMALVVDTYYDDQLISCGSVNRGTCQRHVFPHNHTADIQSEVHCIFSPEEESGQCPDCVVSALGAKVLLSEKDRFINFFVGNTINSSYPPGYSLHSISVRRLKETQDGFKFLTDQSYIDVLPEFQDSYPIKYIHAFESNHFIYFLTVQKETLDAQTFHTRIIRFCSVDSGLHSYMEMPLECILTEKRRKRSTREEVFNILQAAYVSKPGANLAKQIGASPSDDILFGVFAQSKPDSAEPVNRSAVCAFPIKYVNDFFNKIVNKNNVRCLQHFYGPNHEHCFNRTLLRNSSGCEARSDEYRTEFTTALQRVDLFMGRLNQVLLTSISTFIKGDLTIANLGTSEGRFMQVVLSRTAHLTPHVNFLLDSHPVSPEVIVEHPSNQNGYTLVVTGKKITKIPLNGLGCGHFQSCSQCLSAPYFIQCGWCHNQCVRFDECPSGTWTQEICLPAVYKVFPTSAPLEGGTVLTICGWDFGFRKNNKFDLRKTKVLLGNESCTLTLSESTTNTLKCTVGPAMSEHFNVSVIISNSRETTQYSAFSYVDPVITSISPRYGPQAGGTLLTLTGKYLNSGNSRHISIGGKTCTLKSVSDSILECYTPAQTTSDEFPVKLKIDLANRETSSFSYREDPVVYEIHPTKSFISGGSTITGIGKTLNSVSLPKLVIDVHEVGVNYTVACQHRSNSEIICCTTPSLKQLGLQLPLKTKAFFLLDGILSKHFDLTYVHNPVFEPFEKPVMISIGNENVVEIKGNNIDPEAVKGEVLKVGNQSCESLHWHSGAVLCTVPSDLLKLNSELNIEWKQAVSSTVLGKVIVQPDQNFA
Briefly: flow cytometry on transfected HEK293 cells.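 Also: antibodies applied at 50 µg/ml, binding called specific when fluorescence exceeds the mean signal on a negative control chicken or mouse MET construct plus four SD.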 In general terms: Flow cytometry measures light scatter and fluorescence of single cells or particles in a stream.

Description: Cut-off values defined as the average fluorescence signal of all antibodies tested at 50 μg/ml to the negative control chicken or mouse MET construct+four standard deviations were employed to discriminate background binding from specific binding for the domain exchange or blade exchange constructs.

B1: humanized antibody 9006 (antibody, human IgG1, kappa, V domains shown)
VH: QVQLVQSGSELKKPGASVKVSCKASGYTFTNFRMNWVKQAPGQGLKWMGWINTYTGEPTYVDDLKGRFVFSLDTSVSTAYLQISSLKAEDTAVYYCARKGIARAMDYWGQGTTVTVSS
VL: DIVMTQSPDSLAVSLGERATINCKSSQSLLDSGNQKNYLAWYQQKPGQPPKLLIFGASTRESGVPDRFSGSGSGTDFTLTISSLQAEDVAVYYCQNDHSYPYTFGQGTKLEIKR
notes: also called Hu9006; hu9006
On to B1, for which the binding result is given as “no binding (tested: 50 µg/ml)”.
